The target of the test is human recombinant CXCL10 (human) (UniProt P02778).
UniProt P02778, sequence (P02778 22-98): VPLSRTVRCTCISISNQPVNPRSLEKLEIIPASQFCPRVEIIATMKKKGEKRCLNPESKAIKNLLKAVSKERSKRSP
On to “L. (L.) major GP63 (glycoprotein-63), wild-type allele gp63^PYSDGS (from UniProt P08148 40-577) (enzyme)”, for which the CXCL10 cleavage rate: GP63 in conditioned medium incubated with 1000 pg/mL CXCL10 for 2 hours, remaining CXCL10 measured by ELISA, rate by linear regression amounted to 6.07 pg/mL/min. Take “L. (L.) major GP63 triple mutant gp63^GYSNGA (from UniProt P08148 40-577) (enzyme)”: the CXCL10 cleavage rate: GP63 in conditioned medium incubated with 1000 pg/mL CXCL10 for 2 hours, remaining CXCL10 measured by ELISA, rate by linear regression was 0.14 pg/mL/min. The same measure for “L. (L.) major GP63 D463N mutant gp63^PYSNGS (from UniProt P08148 40-577) (enzyme)”: 1.16 pg/mL/min.

For the origin of these results see publication PMC8577781.
